Data on 94 variants can be found in the supplement of paper PMC10567573.

Sequences and labels used below:
B1: ZNF263 (parent)
chain: PEASHLRFRRFRFQEAAGPREALS
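Note: lentivirally expressed fusions sorted by FACS into six bins by GFP to DsRed ratio, PSI derived from sequencing read proportions per bin multiplied by bin number.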

Variants of B1 are the subject of the data set. The data set can be described thus: protein stability index of a GFP-peptide fusion (GPS, HEK-293T) (PSI 1-6); higher = more stable. The settings on record: c terminus: a fixed tail appended.
With PEISHLRFRRFRFQEAAGPREALS [A3I], the protein stability index came out at 2.52. The value for PECSHLRFRRFRFQEAAGPREALS [A3C] was 2.95; that for PEYSHLRFRRFRFQEAAGPREALS [A3Y] was 2.38; that for PERSHLRFRRFRFQEAAGPREALS [A3R] was 2.71. On to PEKSHLRFRRFRFQEAAGPREALS [A3K], for which the protein stability index amounted to 2.

On to PENSHLRFRRFRFQEAAGPREALS [A3N], for which the protein stability index stood at 1.98. With PEESHLRFRRFRFQEAAGPREALS [A3E] the figure was 2.82; with PESSHLRFRRFRFQEAAGPREALS [A3S], 2.59; with PETSHLRFRRFRFQEAAGPREALS [A3T], 2.52. The value for PEFSHLRFRRFRFQEAAGPREALS [A3F] was 2.8; that for PEDSHLRFRRFRFQEAAGPREALS [A3D] was 3.1; that for PEMSHLRFRRFRFQEAAGPREALS [A3M] was 3.55.

For the variant PEHSHLRFRRFRFQEAAGPREALS [A3H], the protein stability index was found to be 2.84. With PEGSHLRFRRFRFQEAAGPREALS [A3G] the figure was 2.95; with PEPSHLRFRRFRFQEAAGPREALS [A3P], 2.87; with PEVSHLRFRRFRFQEAAGPREALS [A3V], 1.73.

Regarding PEQSHLRFRRFRFQEAAGPREALS [A3Q], the protein stability index came to 2.55. For PELSHLRFRRFRFQEAAGPREALS [A3L], the protein stability index was 2.4. For PEWSHLRFRRFRFQEAAGPREALS [A3W], the protein stability index is 1.97. Consider PEASCLRFRRFRFQEAAGPREALS [H5C], for which the protein stability index stood at 2.55.

As to PEASSLRFRRFRFQEAAGPREALS [H5S], the protein stability index was determined as 2.29. With PEASFLRFRRFRFQEAAGPREALS [H5F], the protein stability index is 2.12. With PEASWLRFRRFRFQEAAGPREALS [H5W] the figure was 2.44; with PEASLLRFRRFRFQEAAGPREALS [H5L], 2.74. With PEASELRFRRFRFQEAAGPREALS [H5E], the protein stability index came to 2.47. PEASKLRFRRFRFQEAAGPREALS [H5K]: the protein stability index is 1.77.

PEASNLRFRRFRFQEAAGPREALS [H5N]: the protein stability index is 2.31. As to PEASQLRFRRFRFQEAAGPREALS [H5Q], the protein stability index amounted to 3.04. As for PEASALRFRRFRFQEAAGPREALS [H5A], the protein stability index worked out at 2.61. For PEASDLRFRRFRFQEAAGPREALS [H5D], the protein stability index worked out at 3.21. In the case of PEASPLRFRRFRFQEAAGPREALS [H5P], the protein stability index is 1.49. As for PEASRLRFRRFRFQEAAGPREALS [H5R], the protein stability index is 2.68.

On to PEASILRFRRFRFQEAAGPREALS [H5I], for which the protein stability index was determined as 1.91. The value for PEASTLRFRRFRFQEAAGPREALS [H5T] was 2.89; that for PEASMLRFRRFRFQEAAGPREALS [H5M] was 3.39.

In the case of PEASVLRFRRFRFQEAAGPREALS [H5V], the protein stability index worked out at 2.15. As to PEASGLRFRRFRFQEAAGPREALS [H5G], the protein stability index came out at 2.44. As to PEASYLRFRRFRFQEAAGPREALS [H5Y], the protein stability index worked out at 1.95. QEASHLRFRRFRFQEAAGPREALS [P1Q]: the protein stability index amounted to 2.79. With SEASHLRFRRFRFQEAAGPREALS [P1S] the figure was 3.74; with HEASHLRFRRFRFQEAAGPREALS [P1H], 2.16; with CEASHLRFRRFRFQEAAGPREALS [P1C], 1.96.

Regarding WEASHLRFRRFRFQEAAGPREALS [P1W], the protein stability index was 2.08. The value for MEASHLRFRRFRFQEAAGPREALS [P1M] was 2.73; that for IEASHLRFRRFRFQEAAGPREALS [P1I] was 2.71. Regarding DEASHLRFRRFRFQEAAGPREALS [P1D], the protein stability index worked out at 2.65. With YEASHLRFRRFRFQEAAGPREALS [P1Y], the protein stability index is 2.3.

Consider LEASHLRFRRFRFQEAAGPREALS [P1L], for which the protein stability index amounted to 2.53. As to AEASHLRFRRFRFQEAAGPREALS [P1A], the protein stability index was 1.75.

With EEASHLRFRRFRFQEAAGPREALS [P1E], the protein stability index was 2.97. Turning to VEASHLRFRRFRFQEAAGPREALS [P1V], the protein stability index was determined as 1.85. Take TEASHLRFRRFRFQEAAGPREALS [P1T]: the protein stability index worked out at 2.44.

As for GEASHLRFRRFRFQEAAGPREALS [P1G], the protein stability index came to 2.8. Turning to REASHLRFRRFRFQEAAGPREALS [P1R], the protein stability index was 2.97. For the variant FEASHLRFRRFRFQEAAGPREALS [P1F], the protein stability index stood at 3.44. In the case of NEASHLRFRRFRFQEAAGPREALS [P1N], the protein stability index stood at 2.13. The value for KEASHLRFRRFRFQEAAGPREALS [P1K] was 2.38; that for PDASHLRFRRFRFQEAAGPREALS [E2D] was 3.22.

Take PMASHLRFRRFRFQEAAGPREALS [E2M]: the protein stability index was determined as 1.75. With PCASHLRFRRFRFQEAAGPREALS [E2C], the protein stability index is 1.08.

On to PSASHLRFRRFRFQEAAGPREALS [E2S], for which the protein stability index was 2.52. Turning to PQASHLRFRRFRFQEAAGPREALS [E2Q], the protein stability index amounted to 2.11. As to PLASHLRFRRFRFQEAAGPREALS [E2L], the protein stability index amounted to 1.29. Regarding PAASHLRFRRFRFQEAAGPREALS [E2A], the protein stability index stood at 2.88. The value for PKASHLRFRRFRFQEAAGPREALS [E2K] was 2.83; that for PIASHLRFRRFRFQEAAGPREALS [E2I] was 1.72. With PGASHLRFRRFRFQEAAGPREALS [E2G], the protein stability index was found to be 2.12. With PVASHLRFRRFRFQEAAGPREALS [E2V], the protein stability index worked out at 2.12. For the variant PNASHLRFRRFRFQEAAGPREALS [E2N], the protein stability index came out at 2.52. On to PTASHLRFRRFRFQEAAGPREALS [E2T], for which the protein stability index was found to be 2.4. With PRASHLRFRRFRFQEAAGPREALS [E2R], the protein stability index stood at 2.84. With PWASHLRFRRFRFQEAAGPREALS [E2W], the protein stability index amounted to 1.52. As for PYASHLRFRRFRFQEAAGPREALS [E2Y], the protein stability index was 1.82. With PFASHLRFRRFRFQEAAGPREALS [E2F], the protein stability index was found to be 1.73.

Turning to PHASHLRFRRFRFQEAAGPREALS [E2H], the protein stability index was 2.

Take PEASHIRFRRFRFQEAAGPREALS [L6I]: the protein stability index came to 2.42. Take PEASHKRFRRFRFQEAAGPREALS [L6K]: the protein stability index was 2.73. As to PEASHERFRRFRFQEAAGPREALS [L6E], the protein stability index turned out to be 3.61.

As for PEASHSRFRRFRFQEAAGPREALS [L6S], the protein stability index worked out at 3.23. Turning to PEASHCRFRRFRFQEAAGPREALS [L6C], the protein stability index amounted to 2.6. Take PEASHHRFRRFRFQEAAGPREALS [L6H]: the protein stability index was 3.46. The value for PEASHDRFRRFRFQEAAGPREALS [L6D] was 3.62. On to PEASHQRFRRFRFQEAAGPREALS [L6Q], for which the protein stability index was determined as 3.63.

Consider PEASHPRFRRFRFQEAAGPREALS [L6P], for which the protein stability index was determined as 3.03. The value for PEASHGRFRRFRFQEAAGPREALS [L6G] was 3.46.

As for PEASHNRFRRFRFQEAAGPREALS [L6N], the protein stability index was 3.03.

As for PEASHWRFRRFRFQEAAGPREALS [L6W], the protein stability index came out at 2.37. For PEASHTRFRRFRFQEAAGPREALS [L6T], the protein stability index is 1.98. In the case of PEASHFRFRRFRFQEAAGPREALS [L6F], the protein stability index amounted to 2.75. In the case of PEASHYRFRRFRFQEAAGPREALS [L6Y], the protein stability index amounted to 1.66. With PEASHVRFRRFRFQEAAGPREALS [L6V] the figure was 3.36; with PEASHMRFRRFRFQEAAGPREALS [L6M], 2.54. PEASHRRFRRFRFQEAAGPREALS [L6R]: the protein stability index turned out to be 3.06. For the variant PEASHARFRRFRFQEAAGPREALS [L6A], the protein stability index was 3.3.
